Experiment: soluble on expression in E. coli; label from the status in PepcDB or PDB records

Sequence	soluble on expression in E. coli
MGSDKIHHHHHHMKFSKLADQVWGEEPDDQVRSFVFMSNLDAQETANTMDVSVSVERIHADLCGNTELASELHYTPDEWDEAQGWVKINYPLIDDTASASLDVVLDATFQPLPGQPFEGEALTLIDALLHHAENVAASNPWKRTTFHTAHMHPPGSNADCDYCLVLQRRGYVKAHEEIQQTIPLPSGDWSAGEFTVVDVEGTAFPSALIPSIVELQHRAALDVPHGNLSVAPAQWDEHRLAQQSERILKTGTKLFTVLFAEGSTVAAMSSIAIPPGSNPDIAEQGLTIVHPDFRGRGLGTAVKLAGLSLLSRCHPEIQRVATSNAVDNHAMLAINRSIGATEIARTTLWEKKL	not soluble
GSSSGGGSSSSGTSSAFSSYFNNKVGIPQEHVDHDDFDANQLLNKINE	soluble
MGHHHHHHSHMNPLKNIKCTKCPEVFQGVEKLVFHMRAQHFIFMCPRCGKQFNHSSNLNRHMNVHRGVKSHSCGICGKCFTQKSTLHDHLNLHSGARPYRCSYCDVRFAHKPAIRRHLKEQHGKTTAENVL	soluble
MTTPSPQEISTVTLNSLSKEERKKAILALQTKKNEIKLVIDEHQKKLAEFRQSIPDGCCEMFENEKKIRLKHSSTAELLPHLQKVGSSSVDKEKMINNIRQRVEVQVADQETFKSIEERNELLRRENENLKKEVNTVAAELLQEFESYE	not soluble
MGSDKIHHHHHHMKKIFKSIANSANCLADVLFPPHCLVCDSGLVLGETDVCSTCLSTLPTVNDDYSPDSLYLRLSIELRPSFVWAYLLFDSKNKTQKILHAIKYGDAPDIAVRLAMIWTDRIRESLVEADVDLIMPIPLHKSKLRKRGYNQATKIAEGIQKIVPIPIEESVLIRKRNLFIQAKSKRAKRFENVKQVYAIQHIEKVAGKHILLVDDVLTTGATLEACGLLLKNAGAAKVSVALLAMVAD	not soluble
SKRVEVLLTQLPAYNRLKTPYEAELIETAKKMTAPGKGLLAADESTGSCSKRFAGIGLSNTAEHRRQYRALMLECEGFEQYISGVILHDETVYQKAKTGETFPQYLRRRGVVPGIKTDCGLEPLVEGAKGEQMTAGLDGYIKRAKKYYAMGCRFCKWRNVYKIQNGTVSEAVVRFNAETLARYAILSQLCGLVPIVEPEVMIDGTHDIETCQRVSQHVWSEVVSALHRHGVVWEGCLLKPNMVVPGAESGLKGHAEQVAEYTVKTLARVIPPALPGVTFLSGGLSEVMASEYLNAMNNCPLPRPWKLTFSYARALQSSAIKRWGGKESGVEAGRRAFMHRAKMNSLAQLGKYNRADDDKDSQSLYVAGNT	soluble
MTSLSSPSPIQHTTSSFLNNFMPTPSLINLQQGYRNPDLGSQDLARLDASRHESIQKVSRKLSTYEEEKNLIENELEEIERTGARLLSIVEQKDNFLASRIRRFMEKSKELVGIETLLRLQLNKHNERIKDGLIDISAARGEESYLQKRFKDTDFLRKISARREIDYDKELSEIFTDDQFHRWVMFKKATLQLLQTESSVSYYIRESNAKLDALHLAPRGTSA	not soluble
MQIKLPKPFFFEEGKRAVLLLHGFTGNSSDVRQLGRFLQKKGYTSYAPQYEGHAAPPDEILKSSPFVWFKDALDGYDYLVEQGYDEIVVAGLSLGGDFALKLSLNRDVKGIVTMCAPMGGKTEGAIYEGFLEYARNFKKYEGKDQETIDNEMDHFKPTETLKELSEALDTIKEQVDEVLDPILVIQAENDNMIDPQSANYIYDHVDSDDKNIKWYSESGHVITIDKEKEQVFEDIYQFLESLDWSE	not soluble
MQQQETFRHILSVLVQDVDGIISRVSAMFTRRSFSLVSFVSGKTEMHGINRITIVVDASTQDIEQITKQLNKLIPVLKVVRLDEDVTVARALMLVKVSADASNRPQVVDAAKIFRAHVVDVAPDSVVIEATGNKGKLRALLDVLEPFGIRELISSGQIALNRGSKTMAPQSSRS	not soluble
MGSDKIHHHHHHMKSYLTPLALLVSSVFSTVAYAETQLFVTTSSTQDAPLHIVYPTGIRIGQAVQDGLQQLPLYNKTNNKEVMPIYWLGAALVDLENTAVLETKRQQVLSQLAQMGEATNDSRYITKLAQLAQFLRGIKLGQRVMQPLDIDAIRITESYNAIIEGKYQLVLPPRPSTITLVGAVTQTGNMPWQSQTSSKDYLKQAGLLENAETSFVWIIQPDGNAIRQPIAYWNYQAQDIAPGATLFVEFSSLFDGYANLNENIIELLKNRTL	not soluble
DGYWYGDYYGVMSFGVNTDLVQEVPKSWEALLDSQYANAFALAGDPRASNQAILAVMSAGIADGTEPGEASGKKGLEFFGKLNKAGGFVPVIGKAGTIAQGQTPIVAAWDYNLLSWRDELKGNPPMEVVIPEGPSLAGVYVQAISAFAPHPNAAKLWMEYLYS	not soluble
MYEYSFNPNIDHEPGSVESQQSTIYSDSDDSDDSFLDDEVIPPKEQAMRKIEFALADIKRQMDNKEKSLTLRISTSKSHFCLRYTAKRKGKLDRDLHCLHQVYDLLENDKRSTKRELYYEHKAVYGNQKYLDSSIKSICELLNESRANLNILSCGRGIIRGAITFLVENVGVIDARVQEVLITDALLFSNIISEADFILVVEKDTTFQKLMDENFQAMFPRGILATSKGYPDIATRNVLKMLSEKRKFPIYGLFDADPHGIEIYLTYKYGPTKEFAEGRGAFVPTIEWIGLFPTDFHRFTIDQSQCLPLVRTDFVKIEKMIPRSIQLGEIVVTRELDWMIQNKFKMELESINMCGQEYMARFLIAPRVMSIEKEIPIQPETIINEYHEDSQCSLSTDDDREAKDDDYIDSDAEEKFQNMIDNDSD	not soluble
IFPFKEPPMALEKHGTCLCGDTRLTVTVDNTHISACHCSMCRKWTGGPLLVVHCSKPPLIEGRAPSVYDSSDWAQRAFCGRCGTHLYYRLKANDFHAVPVGLLDGDQAWDFDLQIFVEEKPAWYCFANQTKELSGQE	not soluble
MRFLTAGESHGPELLAIIEGLPAGLPLSEEDINPWLEKRQKGYGRGRRMVIERDRVEFRAGVRGGRTTGAPVALAIKNADFKNWAEIMDPAPGNWPRKRALTAARPGHADLAGGMKYGHKDLRDVLERASARETAMRVAVGAVALKLLSLLGVEGVGYVPGMAGVWAKVPFSWDLVPRIEESPLRMTDPEAEAEAIRRIDQAKAEGDTLGGIIEARFRGLVPGLGSHVHWDRKLDGRLAQMALSIPAVKGVEIGPAFENAMKRGSEVHDAIYWSPERGFYRKTNRAGGLEGGMTTGEELVVRAALKPIATLMKPLPTVDVVTHEPKDAARERSDTTAVPAASVILCALSAIVLAQAYLEKFGGDTMEEIQERVERYRERVRAY	soluble
MGSSHHHHHHSSGLVPRGSHMEQMHSLESSLPPEQPPTKQAIESLNLELSQEFKLAANAVTRLYRVANEKNSLTKHQGYLTCLDDILCALDSNVTADELRAWCYKRRNDILSNSQDKSLNPVKERERKLNKFSENQHRENEAHKEPFEKDSAVKYNFSFNESNGDLSNINENIAPKFRLSMPPLSVEHPPRNASRIKSWKARTINHGRGDTRNLNDITGLGHERERDRENTHYEKKPKLDSDSEVDIRSFRQDMDL	soluble
MLPLEPYLTQTSAVPQMSHFMCHSPTHKPQGLLPWAPFHQASVSLYPISPWPSESVCPPTCPGGASCWFPAGNAWDRVELGFLGFGAGGVSIAVPGFPLSCGQGCCAGGWLGHGARFPAKLRAFPQVIRRGWLTINNISLMKGGSKEYWFVLTAESLSWYKDEEEKEKKYMLPLDNLKIRDVEKGFMSNKHVFAIFNTEQRNVYKDLRQIELACDSQEDVDSWKASFLRAGVYPEKDQAENEDGAQENTFSMDPQLERQVETIRNLVDSYVAIINKSIRDLMPKTIMHLMINNTKAFIHHELLAYLYSSADQSSLMEESADQAQRRDDMLRMYHALKEALNIIGDISTSTVSTPVPPPVDDTWLQSASSHSPTPQRRPVSSIHPPGRPPAVRGPTPGPPLIPVPVGAAASFSAPPIPSRPGPQSVFANSDLFPAPPQIPSRPVRIPPGIPPGVPRRPPAAPSRPTIIRPAEPSLLD	soluble
GHMYETIRYEVKGQVAWLTLNRPDQLNAFTEQMNAEVTKALKQAGADPNVRCVVITGAGRAFCAGEDLSGVTEEMDHGDVLRSRYAPMMKALHHLEKPVVAAVNGAAAGAGMSLALACDFRLLSEKASFAPAFIHVGLVPDAGHLYYLPRLVGRAKALELAVLGEKVTAEEAAALGLATKVIPLSDWEEEVKQFAERLSAMPTKAIGLIKRLLRESEETTFDRYLEREAECQRIAGLTSDHREGVKAFFEKRKPLFQGN	soluble
SQSPNPNNPAEYCSTIPPLQQAQASGALSSPPPTVMVPVGV	soluble
MSLTADVDYPLLAKMRSASRRALTSLVDWFGTMAQDLDHQGLTTLAGELVSVARLLDREAVVTRYLTVPAEDATPRIRLIERLVSGKVGAPTLEVLRTAVSKRWSANSDLIDAIEHVSRQALLELAERAGQVDEVEDQLFRFSRILDVQPRLAILLGDCAVPAEGRVRLLRKVLERADSTVNPVVVALLSHTVELLRGQAVEEAVLFLAEVAVARRGEIVAQVGAAAELSDAQRTRLTEVLSRIYGHPVTVQLHIDAALLGGLSIAVGDEVIDGTLSSRLAAAEARLPDEGHHHHHH	soluble
MVCSGAPVALIPTSSGAIMLDYPSMRAVALVARTGSFEKAAQVLCVTPSAVSQRIKQLEERLGVVLIVRGNPCVATEKGEWLCRHMDHVGMLESELFRQLPALTEAGDAQERVTLNIATNADSLGTWFLDAVSKFTGGSDYLVNIAVDDQDHTVEWLRGGRVLAAVTAHDKPVQGCRVTPLGVLRYHATASPDFMARHFADGVTPAALARAPGLTFNQKDRLQASWIRTALGEDVSYPTHWLPSTDGFVKASLAGMGWGLNPVQLVAEHLAAGRLVELMPGTPLDIPLYWQVNRLAAERLAGLTANMVGTARVVLMPVG	soluble
MGSDKIHHHHHHMQLYYAPNTISVAVAIALEEAGLAYEAVKIDFAEKQQTTRAYHQINPKGRVPALAVEGGILTETGALLEFIADLAPDADLRPSDPVLQARMREVMFYLASTMHVNHAHKMRGSRWASNPASFKDMARKVPETMAASCEYICNHGLRGPFVLGDTPCLADFYLYVVCTWLEGDGVKLAGFPKLRAFIEAMDARDSVKTVRAKDML	not soluble
MGSDKIHHHHHHMGKHTKFGSSDDEGETETSVAKRQKDEKKEKKKEKRDRSRSPHKERERSPKRDRHPEKNESRRHDDRDQERRRDYGRNDRRDDRRGDGSWKTDRNDRNDRRNDFQRRDDKNRLSAEEIAAQRKALWGNKKVAGESSSSNTTDTASSSSEPATGGKNEKLWSSAIAATGVDSSKANKFMRLMGVKNAPKPTDDSSRLSDEKNRQDKMLNDLEKQYAIARETTHMGRGTGFGFGH	not soluble
NNEIMPGKMKVKATKGEGDGGITSEGNALYNNEGGRAFMYAYVTTKPGMKYVKWEHDSGVVTVELEPPCRFVIDTPTGPQIKYLYFVKNLNNLRRGAVLGYIGATVRLQ	soluble
QEQQQELAQLEMARSALDSLSELICLQDCQGNLLTTNRAFDQFWEGRREEAITATASRVATRKSERKWTTDTQGRSCLLEVNLSSLVSPSGELLGTLSISHDVT	not soluble
MGSDKIHHHHHHMNIIKFFNQTIDYIETTLEDKIDEKKIVQLSGYSYPMFSRIFSILTAYSLSEYIRLRRLTKAAFDLRKNEEKVIDIAFKYQYESPDSFSLAFKKYHNCTPMEVKQGKDFKIFSPIHLSLTIKGGKAMEISIKKKEKFIVGGIKAENIETFQCPKVWEELFKKVSFNDLEKLGNGNSYGVCYETTSSKSINYIAAFDVKNVSEAKKLGLDTMEIPEAEYAVVKLKGKIPNCIHEGWKYVMEVFFPEHGYKHAGTPDFELYSEGDMGSDNYEMELWVPIIKAE	not soluble
